The target of this series is hFEN1QF (Homo sapiens, UniProt P39748 1-336, E120C;C235A;S293C;C311A). The experiment in a line: single-molecule FRET; 8 mM Ca2+; 20 nM DNA, ~50 pM protein; NMR: 10 mM HEPES-KOH pH 7.5, 6 mM KCl (76 mM KCl in titration), 0.1 mM EDTA, 4 mM NaN3, 100 mM bME, 298 K; smFRET: 55 mM HEPES-KOH pH 7.5, 110 mM KCl, 8 mM CaCl2, 0.1 mg/ml BSA, 1 mM DTT, room temperature. To be noted: protein: recombinant; tags: C-terminal HRV 3C-cleavable His6, cleaved; six residual C-terminal residues of the 3C site; bimolecular double flap: 5-nt 5' flap, 1-nt 3' flap; T1 has a GAA hairpin; F1:T1 annealed 1:1.1.
Sequence of hFEN1QF (P39748 1-336 E120C/C235A/S293C/C311A): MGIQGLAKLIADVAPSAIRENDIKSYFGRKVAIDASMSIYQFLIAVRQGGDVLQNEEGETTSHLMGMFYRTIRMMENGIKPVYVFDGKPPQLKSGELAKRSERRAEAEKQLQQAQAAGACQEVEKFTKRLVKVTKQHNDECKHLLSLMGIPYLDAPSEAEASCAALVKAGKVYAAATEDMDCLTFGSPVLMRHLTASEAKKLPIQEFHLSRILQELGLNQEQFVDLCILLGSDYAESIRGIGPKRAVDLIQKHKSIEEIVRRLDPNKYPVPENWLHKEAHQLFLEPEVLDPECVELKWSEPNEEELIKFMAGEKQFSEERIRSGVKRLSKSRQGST

B1: DF5,1 (F1/T1) (structured_DNA)
DNA 1: TTTTTACAAGGACTGCTCGACAC
DNA 2: GTGTCGAGCAGTCCTTGTGACGACGAAGTCGTCC
On to B1, for which the binding result is “binds”.
